Laboratory results as given in US20240218035.

Target: inactive hepatocyte growth factor (pro-HGF), single-stranded form, in CHO culture supernatant
Sequence (chain, as listed by the source): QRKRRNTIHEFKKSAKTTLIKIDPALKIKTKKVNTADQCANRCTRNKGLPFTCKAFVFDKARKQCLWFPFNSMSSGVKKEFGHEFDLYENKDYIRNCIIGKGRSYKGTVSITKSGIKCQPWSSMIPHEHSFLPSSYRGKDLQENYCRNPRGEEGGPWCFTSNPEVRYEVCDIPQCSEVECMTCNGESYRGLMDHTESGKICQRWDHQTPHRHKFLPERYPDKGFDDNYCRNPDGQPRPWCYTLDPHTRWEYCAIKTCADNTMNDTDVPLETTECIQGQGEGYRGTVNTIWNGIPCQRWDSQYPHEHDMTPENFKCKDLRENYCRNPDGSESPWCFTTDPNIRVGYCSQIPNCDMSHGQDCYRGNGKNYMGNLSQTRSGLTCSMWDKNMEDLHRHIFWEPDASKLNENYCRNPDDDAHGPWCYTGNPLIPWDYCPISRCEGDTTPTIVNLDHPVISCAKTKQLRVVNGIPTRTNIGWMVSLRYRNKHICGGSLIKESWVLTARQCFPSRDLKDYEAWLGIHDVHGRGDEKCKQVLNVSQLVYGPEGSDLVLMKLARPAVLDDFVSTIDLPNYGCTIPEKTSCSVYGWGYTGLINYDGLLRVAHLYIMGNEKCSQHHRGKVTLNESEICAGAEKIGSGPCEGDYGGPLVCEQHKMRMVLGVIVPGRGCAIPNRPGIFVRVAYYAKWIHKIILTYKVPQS

B1: active hepatocyte growth factor activator (active HGFA), as activated HGFA culture supernatant from CHO cells (protein)
chain: VQLSPDLLATLPEPASPGRQACGRRHKKRTFLRPRIIGGSSSLPGSHPWLAAIYIGDSFCAGSLVHTCWVVSAAHCFSHSPPRDSVSVVLGQHFFNRTTDVTQTFGIEKYIPYTLYSVFNPSDHDLVLIRLKKKGDRCATRSQFVQPICLPEPGSTFPAGHKCQIAGWGHLDENVSGYSSSLREALVPLVADHKCSSPEVYGADISPNMLCAGYFDCKSDACQGDSGGPLACEKNGVAYLYGIISWGDGCGRLHKPGVYTRVANYVDWINDRIRPPRRLVAPS
Q: B1 was tested. Which “activation state of pro-HGF confirmed with SDS-PAGE (conversion of the single strand into α and β chains) after about 20 hours of reaction at 25° C.” value did it give?
A: Its value is “under a reductive condition after activation the single strand substance had disappeared and separated into α and β chains, and thus sufficient activation of pro-HGF was confirmed”.
